The values below come from publication PMC9243137, “Structural and electrophysiological basis for the modulation of KCNQ1 channel currents by ML277” (Nature Communications, 2022).

In one data set the target is T1, Calmodulin (UniProt P0DP23 1-149).
T1 construct: Calmodulin; DNA a gift of the Wayne Chen lab; model built from residues 10 to 146; Sample held 0.5 mM CaCl2; also called CaM; Ca2+/CaM; source: tsA201 cells, co-transfected with xKCNQ1 (pcDNA3), co-purified with xKCNQ1
Description: cryo-EM structure; xKCNQ1(67-610) co-expressed with CaM in tsA201 cells, complex purified in DDM/CHS, 0.5 mM CaCl2; grids without and with 100 uM ML277; C4 symmetry imposed. To be noted: both partners purified.

Data set [1] deals with the molecule itself. Described as above.

B1: Xenopus laevis KCNQ1, residues 67-610 (truncated, biochemically stable form) (domain or fragment, UniProt P70057 67-610, looked up)
chain: ATDPPRPTINLDPRVSIYSGRRPLLSRTNIQGRVYNFLERPTGWKCFVYHFTVFLIVLICLIFSVLSTIQQYNNLATETLFWMEIVLVVFFGAEYVVRLWSAGCRSKYVGVWGRLRFARKPISVIDLIVVVASVIVLCVGSNGQVFATSAIRGIRFLQILRMLHVDRQGGTWRLLGSVVFIHRQELITTLYIGFLGLIFSSYFVYLAEKDAIDSSGEYQFGSYADALWWGVVTVTTIGYGDKVPQTWIGKTIASCFSVFAISFFALPAGILGSGFALKVQQKQRQKHFNRQIPAAASLIQTAWRCYAAENPDSATWKIYIRKQSRNHHLMSPSPKPKKSAMVKKKKIRTERDEGSTDKMLNIPHITYDHVADDRKNDGYSVESYENTVRKPFGFLDPSTGPFIRTSSFTDDLDMEGDTLLTPITHISELKEHHRAAIKVIRRMQYFVAKKKFQQARKPYDVRDVIEQYSQGHLNLMVRIKELQRRLDQSLGKPSLFLSVSDKVKDKGINTIGSRLNRVEDKVTQMDHKLNLITDMLHHLLTNQQ
notes: KCNQ1 (Kv7.1) of Xenopus laevis, NP_001116347.1, residues 67-610; N- and C-termini truncated as in Sun and MacKinnon 2017; model built from residues 95 to 556 (67-94, 206-214, 385-496 disordered); Human KCNQ1 numbering is +10 against xKCNQ1; A preScission protease site stood between the channel and the C-terminal GFP-6xHis tag; residues of the site may be left after cleavage; Four subunits (C4 …)
In the case of B1, the binding result (with Calmodulin; in data set [1]) was “binds” in each case.
